The target of series [1] is T1, KSRP KH3 (Homo sapiens, UniProt Q92945 322-386).
T1 sequence: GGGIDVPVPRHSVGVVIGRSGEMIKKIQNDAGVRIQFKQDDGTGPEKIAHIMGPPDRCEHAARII
As to the kind of experiment: NMR titration.

Series [2] has as its target T1, KSRP KH3. As to the kind of experiment: NMR structure, NMR titration, ITC.
For series [3], the target named is T2, KSRP KH1-KH4 (referred to as KSRP) (Homo sapiens, UniProt Q92945 68-525).
T2 sequence: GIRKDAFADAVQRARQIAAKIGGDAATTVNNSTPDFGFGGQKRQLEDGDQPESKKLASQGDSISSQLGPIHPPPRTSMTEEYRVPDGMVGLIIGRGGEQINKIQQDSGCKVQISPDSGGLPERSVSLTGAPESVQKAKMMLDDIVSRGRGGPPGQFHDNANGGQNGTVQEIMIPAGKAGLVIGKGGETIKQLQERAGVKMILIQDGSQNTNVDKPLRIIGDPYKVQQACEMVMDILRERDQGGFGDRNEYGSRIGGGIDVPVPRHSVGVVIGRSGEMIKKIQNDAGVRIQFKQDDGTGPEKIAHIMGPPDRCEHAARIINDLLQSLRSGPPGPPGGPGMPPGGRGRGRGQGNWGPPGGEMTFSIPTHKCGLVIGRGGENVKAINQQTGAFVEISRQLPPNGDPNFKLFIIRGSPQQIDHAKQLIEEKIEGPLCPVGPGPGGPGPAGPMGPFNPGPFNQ
The series can be described thus: NMR 13C-1H.

B1: AGGGU G3A (ssRNA)
RNA: AGAGU
Consider B1, for which, in the series with KSRP KH3 [1], the binding result is listed as “binds”.

B2: AGGGU G3U (ssRNA)
RNA: AGUGU
Regarding B2, the binding result with KSRP KH3 [1] is “binds”.

B3: AGGGU (ssRNA)
RNA: AGGGU
Regarding B3, the binding result (with KSRP KH3 [2]; in series [3]) was “binds” in each case.
